Experimental data from patent publication US20160356794A1 (Merck Sharp & Dohme, published 2016).
No end group written: not given here.

Key:
[1] = molecular target: h-Tau 441 (human Tau isoform 2-441, Accession No. NP 005901.2) (human, UniProt P10636 2-758); assay: SPR, BIAcore CM3 sensor chip, immobilized h-Tau 441
Experimental: The binding affinity (Kd) of the 10H8 and 19G10 mAbs was determined by BIAcore CM3 sensor chip (Biacore, Piscataway, N.J.) using immobilized h-Tau 441 as the capture protein.

PPTREPKKVAVVRTP [2] = molecular target: T1, PPTREPKKVAVVRTP (human); assay: RepliTope peptide microarray, immobilized 15-mer, fluorescent secondary antibody
T1 construct: Synthetic peptide covalently immobilized on glass through a hydrophilic linker (RepliTope microarray)
T1 peptide: PPTREPKKVAVVRTP
From the text: (§1) Epitope mapping of clones 10H8 and 19G10 was completed using JPT Peptide Technologies' RepliTope™ peptide microarrays. This technology consists in using purified synthetic peptides chemoselectively and covalently immobilized to the glass surface. An optimized hydrophilic linker moiety is inserted between the glass surface and the antigen derived peptide sequence to avoid false negatives caused by sterical hindrance. The peptides used spanned Tau mid region protein sequence of 166 amino acids between amino acid 104 and amino acid 269 (Tau 166). Peptides of 15 amino acids in length that extended downstream either 1 or 2 amino acids at a time were used in this experiment.
(§2) The assay was performed using an automated TECAN HS4X00 microarray processing station. Microarrays were washed, incubated with blocking buffer for 60 min at 30° C., and subsequently with clones […] and 19G10 diluted in blocking buffer for 120 min at 30° C. Microarrays were washed and incubated with secondary antibody diluted in blocking buffer for 45 min at 30° C. and then dried. The quantification was performed using high resolution fluorescence scanner. The resulting images were analyzed and quantified using spot-recognition software GenePix (Molecular Devices). For each spot, the mean signal intensity was extracted and expressed as arbitraty florescence units.

TREPKKVAVVRTPPK [3] = molecular target: T2, TREPKKVAVVRTPPK (human, also: covalently immobilized on glass through a hydrophilic linker); assay: as above
T2 construct: Synthetic peptide covalently immobilized on glass through a hydrophilic linker (RepliTope microarray)
T2 peptide: TREPKKVAVVRTPPK
From the text: as §1, §2

EPKKVAVVRTPPKSP [4] = molecular target: T3, EPKKVAVVRTPPKSP (human); assay: as above
T3 construct: Synthetic peptide covalently immobilized on glass through a hydrophilic linker (RepliTope microarray)
T3 peptide: EPKKVAVVRTPPKSP
From the text: as §1, §2

KKVAVVRTPPKSPSS = molecular target: T4, KKVAVVRTPPKSPSS (human); assay: as above
T4 construct: Synthetic peptide covalently immobilized on glass through a hydrophilic linker (RepliTope microarray)
T4 peptide: KKVAVVRTPPKSPSS
From the text: as §1, §2

SLPTPPTREPKKVAV [5] = molecular target: T5, SLPTPPTREPKKVAV (human, also: covalently immobilized on glass through a hydrophilic linker); assay: as above
T5 construct: Synthetic peptide covalently immobilized on glass through a hydrophilic linker (RepliTope microarray)
T5 peptide: SLPTPPTREPKKVAV
From the text: as §1, §2

LPTPPTREPKKVAVV = molecular target: T6, LPTPPTREPKKVAVV (human); assay: as above
T6 construct: Synthetic peptide covalently immobilized on glass through a hydrophilic linker (RepliTope microarray)
T6 peptide: LPTPPTREPKKVAVV
From the text: as §1, §2

PTPPTREPKKVAVVR [6] = molecular target: T7, PTPPTREPKKVAVVR (human); assay: as above
T7 construct: Synthetic peptide covalently immobilized on glass through a hydrophilic linker (RepliTope microarray)
T7 peptide: PTPPTREPKKVAVVR
From the text: as §1, §2

TPPTREPKKVAVVRT = molecular target: T8, TPPTREPKKVAVVRT (human, also: covalently immobilized on glass through a hydrophilic linker); assay: as above
T8 construct: Synthetic peptide covalently immobilized on glass through a hydrophilic linker (RepliTope microarray)
T8 peptide: TPPTREPKKVAVVRT
From the text: as §1, §2

PPTREPKKVAVVRTP [7] = molecular target: T9, PPTREPKKVAVVRTP (human); assay: as above
T9 construct: Synthetic peptide covalently immobilized on glass through a hydrophilic linker (RepliTope microarray)
T9 peptide: PPTREPKKVAVVRTP
From the text: as §1, §2

PTREPKKVAVVRTPP = molecular target: T10, PTREPKKVAVVRTPP (human); assay: as above
T10 construct: Synthetic peptide covalently immobilized on glass through a hydrophilic linker (RepliTope microarray)
T10 peptide: PTREPKKVAVVRTPP
From the text: as §1, §2

TREPKKVAVVRTPPK [8] = molecular target: T11, TREPKKVAVVRTPPK (human, also: covalently immobilized on glass through a hydrophilic linker); assay: as above
T11 construct: Synthetic peptide covalently immobilized on glass through a hydrophilic linker (RepliTope microarray)
T11 peptide: TREPKKVAVVRTPPK
From the text: as §1, §2

REPKKVAVVRTPPKS = molecular target: T12, REPKKVAVVRTPPKS (human); assay: as above
T12 construct: Synthetic peptide covalently immobilized on glass through a hydrophilic linker (RepliTope microarray)
T12 peptide: REPKKVAVVRTPPKS
From the text: as §1, §2

EPKKVAVVRTPPKSP [9] = molecular target: T13, EPKKVAVVRTPPKSP (human); assay: as above
T13 construct: Synthetic peptide covalently immobilized on glass through a hydrophilic linker (RepliTope microarray)
T13 peptide: EPKKVAVVRTPPKSP
From the text: as §1, §2

PGSRSRTPSLPTPPT = molecular target: T14, PGSRSRTPSLPTPPT (human); assay: as above
T14 construct: Synthetic peptide covalently immobilized on glass through a hydrophilic linker (RepliTope microarray)
T14 peptide: PGSRSRTPSLPTPPT
From the text: as §1, §2

SRSRTPSLPTPPTRE = molecular target: T15, SRSRTPSLPTPPTRE (human, also: covalently immobilized on glass through a hydrophilic linker); assay: as above
T15 construct: Synthetic peptide covalently immobilized on glass through a hydrophilic linker (RepliTope microarray)
T15 peptide: SRSRTPSLPTPPTRE
From the text: as §1, §2

[10] = molecular target: T16, … (human); assay: as above
T16 construct: Synthetic peptide covalently immobilized on glass through a hydrophilic linker (RepliTope microarray)
From the text: as §1, §2

[11] = molecular target: T17, … (human); assay: as above; remark: listed apart in the source
T17 construct: Synthetic peptide covalently immobilized on glass through a hydrophilic linker (RepliTope microarray)
From the text: as §1, §2

SLPTPPTREPKKVAV [12] = molecular target: T18, SLPTPPTREPKKVAV (human, also: covalently immobilized on glass through a hydrophilic linker); assay: as above
T18 construct: Synthetic peptide covalently immobilized on glass through a hydrophilic linker (RepliTope microarray)
T18 peptide: SLPTPPTREPKKVAV
From the text: as §1, §2

PTPPTREPKKVAVVR [13] = molecular target: T19, PTPPTREPKKVAVVR (human); assay: as above
T19 construct: Synthetic peptide covalently immobilized on glass through a hydrophilic linker (RepliTope microarray)
T19 peptide: PTPPTREPKKVAVVR
From the text: as §1, §2

Sequence of h-Tau 441 (human Tau isoform 2-441, Accession No. NP 005901.2) (P10636 other isoform, or with tags, fused parts or gaps limits assumed): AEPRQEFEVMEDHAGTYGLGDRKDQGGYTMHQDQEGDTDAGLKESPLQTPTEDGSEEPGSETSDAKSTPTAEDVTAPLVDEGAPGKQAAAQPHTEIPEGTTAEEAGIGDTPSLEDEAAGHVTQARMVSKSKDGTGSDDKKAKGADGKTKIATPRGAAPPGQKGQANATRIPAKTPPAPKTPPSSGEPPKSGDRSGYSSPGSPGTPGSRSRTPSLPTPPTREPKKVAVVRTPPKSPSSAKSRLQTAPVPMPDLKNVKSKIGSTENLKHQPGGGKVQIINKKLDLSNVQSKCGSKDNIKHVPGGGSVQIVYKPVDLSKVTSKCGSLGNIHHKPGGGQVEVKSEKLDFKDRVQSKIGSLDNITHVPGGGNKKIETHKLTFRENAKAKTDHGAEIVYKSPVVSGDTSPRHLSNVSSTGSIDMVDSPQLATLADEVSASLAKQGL

B1: monoclonal antibody 10H8 (antibody, mouse IgG1, V domains shown)
VH: EVQLQQSGAELVRPGASVKLSCTASGFNIKDEYMNWVKQRPERGLEWIGWIDPENGDAAYASKFQGKATMTADTSSNTAYLQLSSLTSEDTAVYFCTFFYSNYDGYFDVWGAGTTVTVSS
VL: DVLMTQTPLSLPVSLGDQASISCRSSQNIIHSNGSTYLEWYLQKPGQSPKLLIYKVSNRFSGVPDRFSGSGSGTDFTLKISRVEAEDLGIYYCFQGSHVPWTFGGGTKLEIK
notes: also called mAb 10H8; 10H8 mAb
Kd [1]: 17 nM | koff [1]: 0.000306 s⁻¹ | kon [1]: 18200 M⁻¹ s⁻¹ | Fluorescent Intensity (PPTREPKKVAVVRTP [2]): 61100 arbitrary fluorescence units | Fluorescent Intensity (TREPKKVAVVRTPPK [3]): 32400 arbitrary fluorescence units | Fluorescent Intensity (EPKKVAVVRTPPKSP [4]): 2100 arbitrary fluorescence units | Fluorescent Intensity (KKVAVVRTPPKSPSS): 750 arbitrary fluorescence units | Fluorescent Intensity (SLPTPPTREPKKVAV [5]): 64400 arbitrary fluorescence units | Fluorescent Intensity (LPTPPTREPKKVAVV): 59500 arbitrary fluorescence units | Fluorescent Intensity (PTPPTREPKKVAVVR [6]): 64200 arbitrary fluorescence units | Fluorescent Intensity (TPPTREPKKVAVVRT): 60600 arbitrary fluorescence units | Fluorescent Intensity (PPTREPKKVAVVRTP [7]): 60200 arbitrary fluorescence units | Fluorescent Intensity (PTREPKKVAVVRTPP): 64300 arbitrary fluorescence units | Fluorescent Intensity (TREPKKVAVVRTPPK [8]): 58800 arbitrary fluorescence units | Fluorescent Intensity (REPKKVAVVRTPPKS): 1400 arbitrary fluorescence units | Fluorescent Intensity (EPKKVAVVRTPPKSP [9]): 890 arbitrary fluorescence units | Fluorescent Intensity (PGSRSRTPSLPTPPT): 570 arbitrary fluorescence units | Fluorescent Intensity (SRSRTPSLPTPPTRE): 552 arbitrary fluorescence units | Fluorescent Intensity [10]: 58000 arbitrary fluorescence units | Fluorescent Intensity [11]: 56700 arbitrary fluorescence units | Fluorescent Intensity (SLPTPPTREPKKVAV [12]): 63900 arbitrary fluorescence units | Fluorescent Intensity (PTPPTREPKKVAVVR [13]): 53000 arbitrary fluorescence units
